Measured values as given in patent publication US20250163157A1 (Boehringer Ingelheim, published 2025).
Residue numbers refer to the chain shown, from its start. Numbers in names are those of the source.

B1: reference antibody (full-length bivalent, monospecific, agonistic anti-CD277 antibody; heavy chain of SEQ ID NO:94, light chain of SEQ ID NO:93) (antibody, human IgG1, kappa, L234A L235A, V domains shown)
VH: QVQLQQSGAELVKPGASVKLSCKASGYTFTRYYLYWVKQRPGQGLEWIGEINPNNGGTKFNEKFKSKATLTVDKSSRTTYIQLSSLTSEDSAVYYCSREDDYDGTPDAMDYWGQGTAVTVSS
VL: DIQMNQSPSSLSASLGDTITITCHASQNINLWLSWYQQRPGNIPKLLIYRASNLHTGVPSRFSGSGSATGFTLTISSLQPEDIATYYCQQGHSYPYTFGGGTKLDIKR
notes: also called parent antibody
B2: Antibody 47 (anti-CD277; VL parent, VH CDR2 N185S, K190N) (antibody, V domains shown)
VH: B1 VH with N54S, K59N
VL: DIQMNQSPSSLSASLGDTITITCHASQNINLWLSWYQQRPGNIPKLLIYRASNLHTGVPSRFSGSGSATGFTLTISSLQPEDIATYYCQQGHSYPYTFGGGTKLDIK
notes: also called EvB#47; EvB#23
B3: Antibody 52 (anti-CD277; VL CDR1 L31V, VH CDR2 N185S, K190N) (antibody, V domains shown)
VH: B1 VH with N54S, K59N
VL: B2 VL with L31V
notes: Its constructs use human IgG1 with L234A/L235A and human kappa; also called EvB#52; EvB#29

molecular target: T1, recombinant CD277 (human, UniProt O00481 30-254, limits assumed); test: SPR (Biacore), recombinant CD277 amine-coupled to CM5 chip, antibody as analyte, 1:1 Langmuir fit
T1 construct: It gives no isoform (BTN3A1, A2 or A3), construct limits or supplier; also called BTN3A; Butyrophilin 3 family member BTN3A
T1 sequence (O00481 30-254 limits assumed): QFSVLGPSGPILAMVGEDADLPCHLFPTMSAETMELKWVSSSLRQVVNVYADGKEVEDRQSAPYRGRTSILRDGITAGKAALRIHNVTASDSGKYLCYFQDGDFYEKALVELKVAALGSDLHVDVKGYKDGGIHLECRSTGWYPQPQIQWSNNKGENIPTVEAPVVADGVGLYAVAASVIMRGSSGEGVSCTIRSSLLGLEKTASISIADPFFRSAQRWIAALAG
Procedure: SPR assay was performed according to the state of the art. In short, recombinant CD277 was immobilized to the surface of a Biacore CM5 optical sensor chip by covalent EDC/NHS coupling following the Biacore amine coupling kit protocol. Antibody samples were applied as analytes in serial dilution allowing standardized comparison of all antibodies binding to the identical target molecule surface. Kinetic analysis data are based on 1:1 Langmuir curve fitting model and mean Langmuir on-rates, off-rates and KD values: see table 5.

| Binder | Kd [nM] |
| --- | --- |
| B1 | 2.8 |
| B2 | 26.3 |
| B3 | 13.9 |
